Consider 1 substance from article PMC4109008.

A value given as a limit tells only on which side of the number the result lay.

The target of this test is zipper-mEos3.2C (split site 164E). Put plainly: split reporter (BiFC, NanoBiT); BiFC signal of E. coli cultures read in a plate reader with 480 nm excitation at different culture durations, normalised to OD600; zippers against mutated zippers.

As to “mEos3.2N-Zipper (split site 164E) (peptide)”, the complementation efficiency (intensity ratio of the specific BiFC signal by leucine zippers to the nonspecific signal via mutated leucine zippers) is less than 12.
